# Measurements from paper PMC4434323.
# Columns and labels:
# [1] = target: T1, atf-2 (K08F8.2) (Caenorhabditis elegans) (UniProt Q21361)
# T1 sequence: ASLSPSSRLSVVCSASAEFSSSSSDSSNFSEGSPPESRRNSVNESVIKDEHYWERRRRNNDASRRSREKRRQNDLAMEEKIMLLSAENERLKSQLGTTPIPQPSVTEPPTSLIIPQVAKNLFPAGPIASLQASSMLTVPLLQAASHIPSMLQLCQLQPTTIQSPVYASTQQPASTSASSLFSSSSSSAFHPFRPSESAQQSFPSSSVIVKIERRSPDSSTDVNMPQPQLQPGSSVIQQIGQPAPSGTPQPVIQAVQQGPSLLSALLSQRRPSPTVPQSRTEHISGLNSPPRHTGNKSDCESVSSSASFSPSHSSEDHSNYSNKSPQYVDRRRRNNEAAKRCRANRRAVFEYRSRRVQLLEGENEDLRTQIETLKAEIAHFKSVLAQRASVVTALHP
# [2] = target: T2, Y61A9LA.9 (Y61A9LA.9) (Caenorhabditis elegans) (UniProt Q9N312)
# T2 sequence: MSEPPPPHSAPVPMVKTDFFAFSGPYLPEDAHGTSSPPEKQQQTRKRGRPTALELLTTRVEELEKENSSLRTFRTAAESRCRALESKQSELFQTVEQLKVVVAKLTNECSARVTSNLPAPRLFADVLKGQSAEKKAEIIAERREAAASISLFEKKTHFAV
# [3] = target: T3, dmd-6 (F13G11.1) (Caenorhabditis elegans) (UniProt O62159)
# T3 sequence: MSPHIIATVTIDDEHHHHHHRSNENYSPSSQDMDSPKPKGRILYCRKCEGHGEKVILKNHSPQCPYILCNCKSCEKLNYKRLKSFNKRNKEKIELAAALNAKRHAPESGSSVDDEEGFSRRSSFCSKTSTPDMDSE
# [4] = target: T4, mab-23 (C32C4.5) (Caenorhabditis elegans) (UniProt G5ECK3)
# T4 sequence: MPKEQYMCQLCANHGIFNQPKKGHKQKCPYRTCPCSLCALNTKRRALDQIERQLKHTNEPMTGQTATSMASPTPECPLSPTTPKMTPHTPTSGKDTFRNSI
# [5] = target: T5, K02D7.2 (K02D7.2) (Caenorhabditis elegans) (UniProt O45103)
# T5 sequence: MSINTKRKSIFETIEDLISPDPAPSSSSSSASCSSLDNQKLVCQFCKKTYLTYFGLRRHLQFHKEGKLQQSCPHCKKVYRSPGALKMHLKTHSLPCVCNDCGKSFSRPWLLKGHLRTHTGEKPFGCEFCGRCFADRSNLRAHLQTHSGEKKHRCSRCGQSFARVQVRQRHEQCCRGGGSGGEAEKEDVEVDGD
# [6] = target: T6, hlh-16 (DY3.3) (Caenorhabditis elegans) (UniProt O45320)
# T6 sequence: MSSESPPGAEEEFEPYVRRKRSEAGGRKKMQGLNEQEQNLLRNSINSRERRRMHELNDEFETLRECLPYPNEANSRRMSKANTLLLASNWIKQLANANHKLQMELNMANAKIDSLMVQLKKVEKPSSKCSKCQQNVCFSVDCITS
# [7] = target: T7, nhr-168 (C50B6.8) (Caenorhabditis elegans) (UniProt P91983)
# T7 sequence: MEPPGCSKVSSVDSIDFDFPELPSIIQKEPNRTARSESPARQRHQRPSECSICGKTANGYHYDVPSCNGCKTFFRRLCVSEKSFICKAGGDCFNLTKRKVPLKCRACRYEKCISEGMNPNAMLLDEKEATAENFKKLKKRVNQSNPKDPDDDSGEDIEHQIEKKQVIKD
# [8] = target: T8, jun-1 (T24H10.7) (Caenorhabditis elegans) (UniProt G5ECU7)
# T8 sequence: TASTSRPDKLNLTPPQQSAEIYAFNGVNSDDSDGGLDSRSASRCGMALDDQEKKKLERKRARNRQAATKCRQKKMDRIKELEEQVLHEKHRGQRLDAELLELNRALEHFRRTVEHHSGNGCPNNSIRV
# [9] = target: T9, T27F2.4 (T27F2.4) (Caenorhabditis elegans) (UniProt Q22835)
# T9 sequence: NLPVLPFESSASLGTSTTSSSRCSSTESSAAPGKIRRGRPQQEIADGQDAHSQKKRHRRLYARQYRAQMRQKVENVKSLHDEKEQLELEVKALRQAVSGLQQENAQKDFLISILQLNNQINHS
# [10] = target: T10, Y51H4A.4 (Y51H4A.4) (Caenorhabditis elegans) (UniProt Q9NAE4)
# T10 sequence: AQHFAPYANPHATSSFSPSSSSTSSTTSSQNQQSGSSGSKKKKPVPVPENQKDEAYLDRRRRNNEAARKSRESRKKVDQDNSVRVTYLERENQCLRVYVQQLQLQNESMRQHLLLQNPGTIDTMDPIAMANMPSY
# [11] = target: T11, odr-7 (T18D3.2) (Caenorhabditis elegans) (UniProt P41933)
# T11 sequence: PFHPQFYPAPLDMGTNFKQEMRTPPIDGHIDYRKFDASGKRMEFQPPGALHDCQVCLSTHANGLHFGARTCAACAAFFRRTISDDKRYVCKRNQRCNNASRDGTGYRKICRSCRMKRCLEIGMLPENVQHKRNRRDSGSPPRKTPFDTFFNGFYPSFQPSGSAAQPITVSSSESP
# [12] = target: T12, T07C12.11 (T07C12.11) (Caenorhabditis elegans) (UniProt G5EGG9)
# T12 sequence: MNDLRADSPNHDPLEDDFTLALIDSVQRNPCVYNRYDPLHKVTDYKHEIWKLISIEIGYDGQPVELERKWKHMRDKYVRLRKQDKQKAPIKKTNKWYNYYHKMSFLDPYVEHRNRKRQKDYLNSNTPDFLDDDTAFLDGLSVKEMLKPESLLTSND
# [13] = system: scrt-1 (C55C2.1) (Caenorhabditis elegans)
# [14] = target: T13, Y75B8A.6 (Y75B8A.6) (Caenorhabditis elegans) (UniProt A0A168H365)
# T13 sequence: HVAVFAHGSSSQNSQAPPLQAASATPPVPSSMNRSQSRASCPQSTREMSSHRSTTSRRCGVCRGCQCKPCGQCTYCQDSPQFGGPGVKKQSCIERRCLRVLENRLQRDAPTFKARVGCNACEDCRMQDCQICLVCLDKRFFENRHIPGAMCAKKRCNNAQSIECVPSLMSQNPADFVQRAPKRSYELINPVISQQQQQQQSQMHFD
# [15] = target: T14, Y44A6D.3 (Y44A6D.3) (Caenorhabditis elegans) (UniProt Q9XXE0)
# T14 sequence: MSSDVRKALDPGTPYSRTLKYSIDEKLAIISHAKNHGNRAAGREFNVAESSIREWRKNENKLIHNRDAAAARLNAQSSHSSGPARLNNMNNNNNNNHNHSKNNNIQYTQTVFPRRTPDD
# Sequence of scrt-1 (C55C2.1) (Caenorhabditis elegans) (chain, as listed by the source): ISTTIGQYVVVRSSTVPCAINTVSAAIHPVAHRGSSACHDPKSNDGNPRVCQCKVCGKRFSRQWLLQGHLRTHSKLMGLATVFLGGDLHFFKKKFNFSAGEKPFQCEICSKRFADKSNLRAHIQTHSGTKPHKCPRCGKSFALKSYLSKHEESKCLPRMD
sequence,measurement,setting,value
TGGCGCAA (double strand) [8-mer TGGCGCAA],binding signal (PBM E-score (-0.5 to 0.5)),[1],0.461
AAATATTA (double strand) [8-mer AAATATTA],binding signal (PBM E-score (-0.5 to 0.5)),[2],0.456
same,binding signal (PBM E-score (-0.5 to 0.5)),[3],0.481
same,binding signal (PBM E-score (-0.5 to 0.5)),[4],0.459
CACCTGTA (double strand) [8-mer CACCTGTA],binding signal (PBM E-score (-0.5 to 0.5)),[5],0.457
AGCAGGTG (double strand) [8-mer AGCAGGTG],binding signal (PBM E-score (-0.5 to 0.5)),[5],0.457
CCATATGG (double strand) [8-mer CCATATGG],binding signal (PBM E-score (-0.5 to 0.5)),[6],0.452
AATGATCT (double strand) [8-mer AATGATCT],binding signal (PBM E-score (-0.5 to 0.5)),[7],0.45
ATGACTAA (double strand) [8-mer ATGACTAA],binding signal (PBM E-score (-0.5 to 0.5)),[8],0.465
ACAATATG (double strand) [8-mer ACAATATG],binding signal (PBM E-score (-0.5 to 0.5)),[6],0.471
TTCGTAAA (double strand) [8-mer TTCGTAAA],binding signal (PBM E-score (-0.5 to 0.5)),[9],0.458
ACAGGTGG (double strand) [8-mer ACAGGTGG],binding signal (PBM E-score (-0.5 to 0.5)),[5],0.467
ACGTAATA (double strand) [8-mer ACGTAATA],binding signal (PBM E-score (-0.5 to 0.5)),[10],0.472
AGTACAAA (double strand) [8-mer AGTACAAA],binding signal (PBM E-score (-0.5 to 0.5)),[11],0.451
same,binding signal (PBM E-score (-0.5 to 0.5)),[7],0.456
ATTACGAA (double strand) [8-mer ATTACGAA],binding signal (PBM E-score (-0.5 to 0.5)),[9],0.485
AATTTTTA (double strand) [8-mer AATTTTTA],binding signal (PBM E-score (-0.5 to 0.5)),[4],0.453
TTATATAA (double strand) [8-mer TTATATAA],binding signal (PBM E-score (-0.5 to 0.5)),[10],0.451
AAAATTTT (double strand) [8-mer AAAATTTT],binding signal (PBM E-score (-0.5 to 0.5)),[3],0.481
same,binding signal (PBM E-score (-0.5 to 0.5)),[4],0.469
CACCTGTC (double strand) [8-mer CACCTGTC],binding signal (PBM E-score (-0.5 to 0.5)),[5],0.456
ATTACGTA (double strand) [8-mer ATTACGTA],binding signal (PBM E-score (-0.5 to 0.5)),[12],0.485
same,binding signal (PBM E-score (-0.5 to 0.5)),[10],0.459
TACGAATA (double strand) [8-mer TACGAATA],binding signal (PBM E-score (-0.5 to 0.5)),[9],0.452
TTACATAA (double strand) [8-mer TTACATAA],binding signal (PBM E-score (-0.5 to 0.5)),[10],0.489
ACAGGTGC (double strand) [8-mer ACAGGTGC],binding signal (PBM E-score (-0.5 to 0.5)),[5],0.477
AAATGTTC (double strand) [8-mer AAATGTTC],binding signal (PBM E-score (-0.5 to 0.5)),[3],0.469
same,binding signal (PBM E-score (-0.5 to 0.5)),[7],0.487
TGGCGTAA (double strand) [8-mer TGGCGTAA],binding signal (PBM E-score (-0.5 to 0.5)),[1],0.452
AAAATTTC (double strand) [8-mer AAAATTTC],binding signal (PBM E-score (-0.5 to 0.5)),[4],0.47
AAATTATT (double strand) [8-mer AAATTATT],binding signal (PBM E-score (-0.5 to 0.5)),[4],0.454
ATGACTCA (double strand) [8-mer ATGACTCA],binding signal (PBM E-score (-0.5 to 0.5)),[8],0.498
AAACCACT (double strand) [8-mer AAACCACT],binding signal (PBM E-score (-0.5 to 0.5)),[13],0.453
GTACAAAA (double strand) [8-mer GTACAAAA],binding signal (PBM E-score (-0.5 to 0.5)),[7],0.46
GTGAGTCA (double strand) [8-mer GTGAGTCA],binding signal (PBM E-score (-0.5 to 0.5)),[8],0.478
AAAATGTT (double strand) [8-mer AAAATGTT],binding signal (PBM E-score (-0.5 to 0.5)),[3],0.475
same,binding signal (PBM E-score (-0.5 to 0.5)),[7],0.458
AATTCGTA (double strand) [8-mer AATTCGTA],binding signal (PBM E-score (-0.5 to 0.5)),[9],0.47
CAATATGG (double strand) [8-mer CAATATGG],binding signal (PBM E-score (-0.5 to 0.5)),[6],0.486
ATGAGTCA (double strand) [8-mer ATGAGTCA],binding signal (PBM E-score (-0.5 to 0.5)),[8],0.493
AATGTTCT (double strand) [8-mer AATGTTCT],binding signal (PBM E-score (-0.5 to 0.5)),[7],0.482
AACCACTG (double strand) [8-mer AACCACTG],binding signal (PBM E-score (-0.5 to 0.5)),[13],0.475
TTGCGCAA (double strand) [8-mer TTGCGCAA],binding signal (PBM E-score (-0.5 to 0.5)),[12],0.493
same,binding signal (PBM E-score (-0.5 to 0.5)),[1],0.498
same,binding signal (PBM E-score (-0.5 to 0.5)),[14],0.462
AAAATATT (double strand) [8-mer AAAATATT],binding signal (PBM E-score (-0.5 to 0.5)),[2],0.451
same,binding signal (PBM E-score (-0.5 to 0.5)),[3],0.485
same,binding signal (PBM E-score (-0.5 to 0.5)),[4],0.469
ATTCGTAA (double strand) [8-mer ATTCGTAA],binding signal (PBM E-score (-0.5 to 0.5)),[9],0.489
CAATATTG (double strand) [8-mer CAATATTG],binding signal (PBM E-score (-0.5 to 0.5)),[6],0.495
GTGACTCA (double strand) [8-mer GTGACTCA],binding signal (PBM E-score (-0.5 to 0.5)),[8],0.47
TTACGCAA (double strand) [8-mer TTACGCAA],binding signal (PBM E-score (-0.5 to 0.5)),[12],0.494
same,binding signal (PBM E-score (-0.5 to 0.5)),[1],0.483
same,binding signal (PBM E-score (-0.5 to 0.5)),[10],0.487
GTTGCGCA (double strand) [8-mer GTTGCGCA],binding signal (PBM E-score (-0.5 to 0.5)),[1],0.452
same,binding signal (PBM E-score (-0.5 to 0.5)),[15],0.493
ATTAGTCA (double strand) [8-mer ATTAGTCA],binding signal (PBM E-score (-0.5 to 0.5)),[8],0.463
AGTGGTTG (double strand) [8-mer AGTGGTTG],binding signal (PBM E-score (-0.5 to 0.5)),[13],0.492
ACACCTGT (double strand) [8-mer ACACCTGT],binding signal (PBM E-score (-0.5 to 0.5)),[5],0.468
AACCACTA (double strand) [8-mer AACCACTA],binding signal (PBM E-score (-0.5 to 0.5)),[13],0.46
AAAAATTT (double strand) [8-mer AAAAATTT],binding signal (PBM E-score (-0.5 to 0.5)),[3],0.481
same,binding signal (PBM E-score (-0.5 to 0.5)),[4],0.478
ATGTTCTC (double strand) [8-mer ATGTTCTC],binding signal (PBM E-score (-0.5 to 0.5)),[7],0.465
AACCACCT (double strand) [8-mer AACCACCT],binding signal (PBM E-score (-0.5 to 0.5)),[13],0.464
